# Measurements from publication PMC4477857 (The Journal of Cell Biology, 2015).
# T1: purified recombinant STIL (human, UniProt Q15468 1-1287)
# T1 sequence (looked up): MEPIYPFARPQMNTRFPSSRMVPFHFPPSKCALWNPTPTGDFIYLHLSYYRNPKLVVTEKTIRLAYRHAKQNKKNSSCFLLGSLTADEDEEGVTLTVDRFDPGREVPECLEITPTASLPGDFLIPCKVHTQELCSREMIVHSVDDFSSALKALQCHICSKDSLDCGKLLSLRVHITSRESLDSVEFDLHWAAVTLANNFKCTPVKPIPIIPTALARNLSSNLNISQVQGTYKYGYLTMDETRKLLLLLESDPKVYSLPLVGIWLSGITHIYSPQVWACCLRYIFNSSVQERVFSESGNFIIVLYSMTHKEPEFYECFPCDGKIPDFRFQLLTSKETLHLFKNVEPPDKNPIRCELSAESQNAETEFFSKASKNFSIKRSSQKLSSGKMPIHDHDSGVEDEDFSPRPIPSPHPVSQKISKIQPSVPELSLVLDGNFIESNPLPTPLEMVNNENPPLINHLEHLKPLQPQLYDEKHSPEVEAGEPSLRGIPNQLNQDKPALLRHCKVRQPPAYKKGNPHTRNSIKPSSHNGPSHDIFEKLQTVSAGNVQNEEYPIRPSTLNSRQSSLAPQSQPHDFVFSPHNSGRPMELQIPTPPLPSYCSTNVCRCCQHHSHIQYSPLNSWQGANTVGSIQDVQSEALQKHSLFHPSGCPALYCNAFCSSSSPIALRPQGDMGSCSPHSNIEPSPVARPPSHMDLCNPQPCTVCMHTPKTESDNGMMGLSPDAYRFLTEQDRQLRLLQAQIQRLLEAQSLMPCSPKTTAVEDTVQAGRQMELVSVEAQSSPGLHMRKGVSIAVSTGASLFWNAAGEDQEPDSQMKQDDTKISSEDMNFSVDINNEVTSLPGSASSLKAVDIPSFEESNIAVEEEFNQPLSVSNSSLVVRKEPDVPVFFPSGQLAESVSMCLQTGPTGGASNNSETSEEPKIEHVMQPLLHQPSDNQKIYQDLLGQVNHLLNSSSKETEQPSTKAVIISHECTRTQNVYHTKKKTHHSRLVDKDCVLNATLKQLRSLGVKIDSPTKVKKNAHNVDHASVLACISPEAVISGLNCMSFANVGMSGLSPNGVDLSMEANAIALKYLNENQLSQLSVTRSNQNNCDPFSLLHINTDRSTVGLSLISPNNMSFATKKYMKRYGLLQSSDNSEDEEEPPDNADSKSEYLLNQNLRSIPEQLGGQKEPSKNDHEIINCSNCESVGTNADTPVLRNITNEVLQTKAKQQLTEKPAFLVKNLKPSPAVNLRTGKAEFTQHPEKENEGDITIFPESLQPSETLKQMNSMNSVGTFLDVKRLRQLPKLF
# Target: T1, purified recombinant STIL
# Experiment: pull-down
binder,measurement,value
"GST-hPlk4 (enzyme, human, UniProt O00444 1-970, looked up) MATCIGEKIEDFKVGNLLGKGSFAGVYRAESIHTGLEVAIKMIDKKAMYKAGMVQRVQNEVKIHCQLKHPSILELYNYFEDSNYVYLVLEMCHNGEMNRYLKNRVKPFSENEARHFMHQIITGMLYLHSHGILHRDLTLSNLLLTRNMNIKIADFGLATQLKMPHEKHYTLCGTPNYISPEIATRSAHGLESDVWSLGCMFYTLLIGRPPFDTDTVKNTLNKVVLADYEMPSFLSIEAKDLIHQLLRRNPADRLSLSSVLDHPFMSRNSSTKSKDLGTVEDSIDSGHATISTAITASSSTSISGSLFDKRRLLIGQPLPNKMTVFPKNKSSTDFSSSGDGNSFYTQWGNQETSNSGRGRVIQDAEERPHSRYLRRAYSSDRSGTSNSQSQAKTYTMERCHSAEMLSVSKRSGGGENEERYSPTDNNANIFNFFKEKTSSSSGSFERPDNNQALSNHLCPGKTPFPFADPTPQTETVQQWFGNLQINAHLRKTTEYDSISPNRDFQGHPDLQKDTSKNAWTDTKVKKNSDASDNAHSVKQQNTMKYMTALHSKPEIIQQECVFGSDPLSEQSKTRGMEPPWGYQNRTLRSITSPLVAHRLKPIRQKTKKAVVSILDSEEVCVELVKEYASQEYVKEVLQISSDGNTITIYYPNGGRGFPLADRPPSPTDNISRYSFDNLPEKYWRKYQYASRFVQLVRSKSPKITYFTRYAKCILMENSPGADFEVWFYDGVKIHKTEDFIQVIEKTGKSYTLKSESEVNSLKEEIKMYMDHANEGHRICLALESIISEEERKTRSAPFFPIIIGRKPGSTSSPKALSPPPSVDSNYPTRERASFNRMVMHSAASPTQAPILNPSMVTNEGLGLTTTASGTDISSNSLKDCLPKSAQLLKSVFVKNVGWATQLTSGAVWVQFNDGSQLVVQAGVSSISYTSPNGQTTRYGENEKLPDYIKQKLQCLSSILLMFSNPTPNFH",binding result,binds
